# Results reported in US20150352207A1, “USE OF ANTIBODIES AGAINST ICAM-1 IN COMBINATION WITH AN ANTI CANCER DRUG IN THE TREATMENT OF PATIENTS” (BIOINVENT INTERNATIONAL AB, priority 2013, published 2015).
# Entries after “also recorded” stand apart in the source; their conditions may differ. Read-outs that look alike come from different tables or passages of the source.
# T1: mouse FcγRIV (Mus musculus, UniProt A0A0B4J1G0)
# T1 construct: made in house; host or cells: HEK293E (transient, adherent)
# T1 sequence (A0A0B4J1G0 21-249): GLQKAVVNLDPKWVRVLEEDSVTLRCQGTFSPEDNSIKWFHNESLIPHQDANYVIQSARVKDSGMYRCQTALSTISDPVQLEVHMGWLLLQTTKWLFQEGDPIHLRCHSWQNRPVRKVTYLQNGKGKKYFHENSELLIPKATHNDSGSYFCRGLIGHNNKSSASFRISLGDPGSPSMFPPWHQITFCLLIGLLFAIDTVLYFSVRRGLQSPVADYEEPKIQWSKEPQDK
# Legend:
# OPM-2 myeloma cells = test: Subcutaneous scid myeloma xenograft, OPM-2 (ICAM-1 negative); type: in vivo, scid mice; details: 2 mg/kg twice weekly
# Protocol: (§1) Antibody treatment with 2 mg/kg B11 or control IgG1 was started at Day 1 and was continued on a twice-weekly intraperitoneal dosing regimen. Mice were sacrificed when tumor sizes reached the ethical limit.
# ARH-77 cells = test: Subcutaneous scid/ARH-77 xenograft, treatment from the day after cell inoculation (prophylactic model)
# Protocol: Tumor cells were injected subcutaneously into the left flank of SCID mice. Mice received twice-weekly intraperitoneal injections with B11, control antibody or rituximab at doses of 20, 2 and/or 0.2 mg/kg commencing one day after tumor cell inoculation. There were 8 to 10 animals per treatment group. (A) Tumor volume as a function of antibody dose. (B) Kaplan-Meier survival graph as a function of antibody dose. […] Statistical significance was calculated relative to control antibody treatment using Kruskal-Wallis Test (Nonparametric ANOVA) with Dunn's Multiple Comparisons Test (tumor volume) or the log-rank test (mouse survival) using Graphpad Instat or Prism software, respectively. Statistical significance was considered for *p<0.05, **p<0.01, and ***p<0.001.
# Tumor cells were injected subcutaneously into the left flank of SCID mice. Mice received twice-weekly intraperitoneal injections with B11 at doses of 0.02-20 mg/kg commencing day after tumor cell inoculation. There were 8-10 animals per treatment group. (A) Tumor volume as a function of antibody dose. (B) Kaplan-Meier survival graph as a function of antibody dose. Statistical significance was calculated relative to control antibody treatment using Kruskal-Wallis Test (Nonparametric ANOVA) with Dunn's Multiple Comparisons Test (tumor volume) or the log-rank test (mouse survival) using Graphpad Instat or Prism software, respectively. Statistical significance was considered for *p<0.05, **p<0.01, and ***p<0.001. Graphs illustrate representative experiments out of several performed.
# (A) ARH-77 cells were injected subcutaneously into the left flank of SCID mice (n=8 per group). Mice were treated with the different B11 isotypes twice weekly. […] Statistical significance was calculated relative to control antibody treatment using Kruskal-Wallis Test (Nonparametric ANOVA) with Dunn's Multiple Comparisons Test. Statistical significance was considered for *p<0.05, **p<0.01, and ***p<0.001.
# Mice were anaesthetized with a mixture of sevofluran and oxygen prior to myeloma cell inoculation and 1-5×10^6 myeloma cells were then subcutaneously injected in a volume of 100 μl into the left flank. Treatment with antibodies by intraperitonial (i.p.) injections was started either the day after cell inoculation (prophylactic model) or when tumors reached a size of approximately 100 mm^3 (established model).
# NCI-H929 myeloma cells = test: Subcutaneous scid myeloma xenograft, NCI-H929; type: in vivo, scid mice; details: 2 mg/kg twice weekly
# Protocol: as §1
# human FcγRIIIa = target: T2, human FcγRIIIa (Homo sapiens, UniProt P08637); test: B11 isotype variant binding to FcγR (Biacore), human FcγRIIIa
# T2 construct: made in house; host or cells: HEK293E (transient, adherent)
# T2 sequence (P08637 17-254): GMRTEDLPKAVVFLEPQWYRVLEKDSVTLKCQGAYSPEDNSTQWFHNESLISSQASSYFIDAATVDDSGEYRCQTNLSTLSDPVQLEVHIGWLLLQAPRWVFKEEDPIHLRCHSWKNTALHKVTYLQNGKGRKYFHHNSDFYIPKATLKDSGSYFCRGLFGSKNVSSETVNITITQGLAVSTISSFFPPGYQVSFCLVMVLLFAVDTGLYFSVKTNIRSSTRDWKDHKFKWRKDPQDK
# Protocol: (§2) His-tagged human FcγRIIIa or mouse FcγRIV were expressed transient in adherent HEK293E cells, purified using Ni-NTA chromatography and characterized using SDS-PAGE and/or Biacore. Surface plasmon resonance (SPR) measurements were performed using a Biacore 3000 instrument. Goat α-human-F(ab)′2 F(ab)′2 fragment (Jackson laboratories) was immobilised with a CM-5 chip using a standard amine coupling protocol. IgG1 B11, IgG4 B11, or 297Q B11 were diluted to 15 and 60 μg/mL respectively and added to the surface at […] for 3 min. His tagged human FcγRIIIa or mouse FcγRIV were pre-incubated with an α-HIS antibody (R&D Systems) at a 2:1 molar ratio before addition to the chip surface, 30 μL/min, 1 min. After each cycle the surface was regenerated twice with glycine buffer pH 1.7.
# [1] = test system: HUVEC, HMVEC or peripheral blood B cells; test: CDC of normal ICAM-1 expressing cells; type: cell-based
# Protocol: Target cells were harvested and incubated in RPMI medium with antibodies at 5 μg/mL or at titrated concentrations between 0.01-100 μg/mL for 60 min on ice. Cells were thereafter washed and resuspended in cold medium before dispension into flow cytometry tubes. Treatments were performed in triplicates. Human serum, normal or heat-inactivated, (Sigma, Sweden) was added to tubes and the samples were incubated for 2 h at 37° C. After completed incubation ToPo-Pro-3 was added at a final concentration of 0.3 μM and cells were analyzed for membrane permeabilization using flow cytometry.
# peripheral blood B cells = test: PCD in normal peripheral blood B cells; type: cell-based; details: resting or activated peripheral blood B cells
# Protocol: (§3) Target cells were seeded in 96-well culture plates at a density of 2×10^6 cells/mL culture medium. Titrated concentrations of IgG1 B11 or different negative and positive control antibodies were added to the cells, in the absence or presence of anti-human Fab fragment (Jackson ImmunoResearch) for cross-linking. The cells were then incubated for 16 hours at 37° C. in a humidified atmosphere of 5% CO2. The cells were harvested and stained for Annexin V-488/Propidium Iodide (Invitrogen, Sweden) and analysed using flow cytometer (FACS Calibur, BD Bioscience).
# mouse FcγRIV = target: T1, mouse FcγRIV; test: B11 isotype variant binding to FcγR (Biacore), mouse FcγRIV
# Protocol: as §2
# [2] = Serum antibody levels of treated xenografted mice (ELISA); type: in vivo; details: serum at end of experimentation
# Protocol: We next performed a dose-titration experiment to establish IgG B11 in vivo potency and the minimal dose achieving maximal anti-tumor activity, using the scid/ARH-77 model system. […] Mouse serum antibody trough concentrations were determined by ELISA at the end of experimentation. Trough antibody concentrations were then plotted against percent of maximal in vivo anti-tumour activity, and against percent of maximal ICAM-1 receptor occupancy and tumour cell PCD at corresponding antibody concentrations in vitro (FIGS. 3C, 3D, 3E, 3F and 3G). Strikingly, a near perfect correlation between antibody concentration and in vitro tumour cell receptor occupancy, in vitro tumor cell PCD, and in vivo anti-tumour activity was observed, consistent with ICAM-1 dependent direct cell cytotoxicity underlying in vivo anti-tumour activity.
# [3] = test system: HUVEC and HMVEC endothelial cells; test: PCD in normal ICAM-1 expressing endothelial cells; type: cell-based; details: resting or activated HUVEC/HMVEC
# Protocol: as §3
# [4] = test system: HUVEC, HMVEC or peripheral blood B cells; test: ADCC of normal ICAM-1 expressing cells; type: cell-based
# Source text: Buffy coats from human donors (ordered through Blodcentralen, Lund) were used to isolate peripheral blood mononuclear cells (PBMCs), and subsequently NK cells. Briefly, peripheral blood components were separated using Ficoll Paque PLUS (Amersham Biosciences, Sweden) in LeucoSep tubes (Greiner Bio-One). The PBMC fraction was removed and thoroughly washed in ice-cold DPBS (Invitrogen), before magnetic labeling and separation of the NK cell population using positive or negative NK cell isolation kits and MACS LS columns (Miltenyi Biotec). The purity of the obtained NK cell fractions was analyzed using flow cytometry, after staining with α-CD56 antibodies (BD Biosciences). Target cells were harvested, and incubated in medium with or without the respective antibodies (2 μg/mL) for 60 min on ice. Cells were thereafter washed and resuspended in cold medium before dispension into FACS tubes. Subsequently, isolated NK cells were diluted in ADCC medium and dispensed together with the respective antibody-coated target cells at varying effector/target cell ratios (40:1, 20:1, 5:1 and 1:1). All experiments were performed in triplicates. After completed incubation ToPo-Pro-3 dye and counting beads (Invitrogen) were added and cells were analyzed for membrane permeabilization using flow cytometry.
molecule,measurement,setting,value
"IgG B11: novel human ICAM-1 antibody targeting the B11 epitope, isolated from the naïve antibody library n-CoDeR (antibody, V domains shown, B11 antibody variable H region; B11 antibody variable L region) VH: EVQLLESGGGLVQPGGSLRLSCAASGFTFSNAWMSWVRQAPGKGLEWVAFIWYDGSNKYYADSVKGRFTISRDNSKNTLYLQMNSLRAEDTAVYYCARYSGWYFDYWGQGTLVTVSS VL: QSVLTQPPSASGTPGQRVTISCTGSSSNIGAGYDVHWYQQLPGTAPKLLIYDNNNRPSGVPDRFSGSKSGTSASLAISGLRSEDEADYYCQSYDSSLSAWLFGGGTKLTVLG",effect on tumor growth,OPM-2 myeloma cells,no effect on tumor growth; also recorded: did not affect tumor growth
same,tumor growth,"ARH-77 cells; 20 mg/kg twice weekly i.p., commencing one day after tumor cell inoculation",completely prevent tumor-growth
same,anti-tumor activity in dose-titration experiment,ARH-77 cells; B11 0.02-20 mg/kg twice weekly i.p.,peaked at the 2 mg/kg dose and remained near maximal at a dose of 0.2 mg/kg
same,survival,"ARH-77 cells; IgG B11 at 2 mg/kg, ten-fold lower dose than rituximab",complete survival
same,anti-tumor activities of IgG B11 isotype switch variants (rank order),"ARH-77 cells; twice weekly treatment, s.c. ARH-77",increased in the order of IgG1N297Q<IgG4<IgG1
same,reduction of myeloma tumor growth,NCI-H929 myeloma cells,99%
same,binding to human FcγRIIIa,human FcγRIIIa,bound to human FcγRIIIa
same,CDC of normal cells,[1],did not confer ADCC or CDC
same,CDC of normal cells,[1]; listed as B11,not significantly affected
same,programmed cell death of normal B cells,peripheral blood B cells,"did not, however, induce PCD"
same,programmed cell death of normal B cells,peripheral blood B cells; listed as B11,not significantly affected
same,binding to murine FcγRIV,mouse FcγRIV,strong binding
same,In vivo IgG Levels,[2]; Dose 0.02 mg/kg,0.06 ± 0.02 µg/mL
same,In vivo IgG Levels,[2]; Dose 0.2 mg/kg,1.2 ± 0.4 µg/mL
same,In vivo IgG Levels,[2]; Dose 2 mg/kg,20 ± 2.9 µg/mL
same,programmed cell death of normal endothelial cells,[3],"did not, however, induce PCD"
same,ADCC of normal cells,[4],did not confer ADCC or CDC
same,ADCC of normal cells,[4]; listed as B11,not significantly affected
